{
  "source": "the RNAGym collection of RNA variant scans (doi:10.7554/elife.90254)",
  "parents": {"B1": {"name": "LINE1-full (parent)", "chain": "UACGUAGGUGGUUUUCCCCUGAUAGUGCUAAGGGGGCCUGGAAGUUUGGACUGGGCAGAGCUCAACACAGCGUGGCAAAGUGGCUGUGGCUAGACUGCCUCUCUGGAUUCCUCGUCACUCAGCAGGGCAUCUCUGAGAGAAAUGCC"}},
  "data": [
    {"variants_of": "B1", "assay": "self-cleavage, relative activity (ratio to wild type); higher = more cleavage; in vitro, sequencing; the parent is a self-cleaving ribozyme", "values": [
      {"variant": "U29A A121G", "self-cleavage": 1.31},
      {"variant": "U12C G36A", "self-cleavage": 1.04},
      {"variant": "G35U U46A", "self-cleavage": 1.07},
      {"variant": "C66A A136G", "self-cleavage": 0.04},
      {"variant": "A117G C145U", "self-cleavage": 1.33},
      {"variant": "G55C A107U", "self-cleavage": 0.08},
      {"variant": "U14C U115C", "self-cleavage": 1.31},
      {"variant": "U81C A107G", "self-cleavage": 1.21},
      {"variant": "C68U A129G", "self-cleavage": 0.06},
      {"variant": "A94G C128U", "self-cleavage": 0.22},
      {"variant": "A50G G82A", "self-cleavage": 1.04},
      {"variant": "U52G A69U", "self-cleavage": 0.1},
      {"variant": "U87C U130C", "self-cleavage": 0.35},
      {"variant": "U26G A117U", "self-cleavage": 1.3},
      {"variant": "U26A G80U", "self-cleavage": 1.21},
      {"variant": "U13C U102A", "self-cleavage": 1.73},
      {"variant": "U96A U119C", "self-cleavage": 0.11},
      {"variant": "C17G", "self-cleavage": 0.91},
      {"variant": "C17U", "self-cleavage": 1.09},
      {"variant": "U20C C131U", "self-cleavage": 1.18},
      {"variant": "G11A A78G", "self-cleavage": 1.38},
      {"variant": "U14A U81A", "self-cleavage": 2.09},
      {"variant": "U14A U81G", "self-cleavage": 0.8},
      {"variant": "U29G A124G", "self-cleavage": 0.44},
      {"variant": "A30U A77G", "self-cleavage": 1.25},
      {"variant": "U87G U119G", "self-cleavage": 0.3},
      {"variant": "A59G C61A", "self-cleavage": 0.03},
      {"variant": "G89A A141U", "self-cleavage": 0.02},
      {"variant": "C3G A79G", "self-cleavage": 1.04},
      {"variant": "C95U A121G", "self-cleavage": 0.33},
      {"variant": "C18A G88U", "self-cleavage": 0.12},
      {"variant": "G70U A140G", "self-cleavage": 0.04},
      {"variant": "C120U A142U", "self-cleavage": 1.52},
      {"variant": "C38U U119A", "self-cleavage": 1.24},
      {"variant": "A22G C128U", "self-cleavage": 1.26},
      {"variant": "G40U U132A", "self-cleavage": 1.31},
      {"variant": "U12C C133A", "self-cleavage": 1.67},
      {"variant": "C19A U62A", "self-cleavage": 0.05},
      {"variant": "A69C U130C", "self-cleavage": 0.36},
      {"variant": "U1A A43G", "self-cleavage": 0.81},
      {"variant": "C38U U87C", "self-cleavage": 0.06},
      {"variant": "U62A U132C", "self-cleavage": 0.06},
      {"variant": "U85C A141G", "self-cleavage": 0.16},
      {"variant": "G82A A124G", "self-cleavage": 1.3},
      {"variant": "G75A U87G", "self-cleavage": 0.18},
      {"variant": "C38A A124G", "self-cleavage": 0.68},
      {"variant": "A42G U45G", "self-cleavage": 0.1},
      {"variant": "A140U U143C", "self-cleavage": 1.54},
      {"variant": "A57U A121G", "self-cleavage": 0.15},
      {"variant": "A117G A140G", "self-cleavage": 1.48},
      {"variant": "U85G G106A", "self-cleavage": 0.29},
      {"variant": "G11A U52G", "self-cleavage": 1.56},
      {"variant": "A22G U109A", "self-cleavage": 1.13},
      {"variant": "G125C U134C", "self-cleavage": 1.58},
      {"variant": "U1C U73C", "self-cleavage": 1.04},
      {"variant": "U12G U119A", "self-cleavage": 1.32},
      {"variant": "A65G G114A", "self-cleavage": 0.04},
      {"variant": "G74A G144A", "self-cleavage": 1.09},
      {"variant": "G127U A129G", "self-cleavage": 0.75},
      {"variant": "U52C G88A", "self-cleavage": 0.04},
      {"variant": "A6U U12G", "self-cleavage": 1.21},
      {"variant": "A42C A92G", "self-cleavage": 0.15},
      {"variant": "U9C A42G", "self-cleavage": 1.32},
      {"variant": "A59U U104C", "self-cleavage": 1.02},
      {"variant": "A57G A78G", "self-cleavage": 0.65},
      {"variant": "U13C U23C", "self-cleavage": 0.41},
      {"variant": "U5C C66U", "self-cleavage": 0.13},
      {"variant": "U1C G139U", "self-cleavage": 0.74},
      {"variant": "U20A U109C", "self-cleavage": 1.25},
      {"variant": "U45G A121U", "self-cleavage": 1.82},
      {"variant": "C3U U62A", "self-cleavage": 0.2},
      {"variant": "U39C A124G", "self-cleavage": 0.53},
      {"variant": "U15G A43G", "self-cleavage": 0.5},
      {"variant": "U12G U115A", "self-cleavage": 0.75},
      {"variant": "U47C G60A", "self-cleavage": 0.03},
      {"variant": "G33U C90G", "self-cleavage": 0.07},
      {"variant": "C68U U134C", "self-cleavage": 0.17},
      {"variant": "G89A U108C", "self-cleavage": 0.04},
      {"variant": "A69G C145U", "self-cleavage": 0.55},
      {"variant": "A77G G114A", "self-cleavage": 2.27},
      {"variant": "G33U G75U", "self-cleavage": 0.91},
      {"variant": "G11A C95A", "self-cleavage": 0.06},
      {"variant": "C37A U91C", "self-cleavage": 0.41},
      {"variant": "U87C G114A", "self-cleavage": 0.23},
      {"variant": "A67G A79C", "self-cleavage": 0.48},
      {"variant": "U81A G83U", "self-cleavage": 1.3},
      {"variant": "U47C A57U", "self-cleavage": 0.29},
      {"variant": "A77U A107C", "self-cleavage": 1.21},
      {"variant": "A6G U143A", "self-cleavage": 0.89},
      {"variant": "A94U U102A", "self-cleavage": 0.33},
      {"variant": "A67G U102A", "self-cleavage": 0.99},
      {"variant": "U52A G55A", "self-cleavage": 0.3},
      {"variant": "A67U A77G", "self-cleavage": 0.17},
      {"variant": "U45G U46C", "self-cleavage": 1.31},
      {"variant": "U26A A78U", "self-cleavage": 1.61},
      {"variant": "G36A U47C", "self-cleavage": 0.9},
      {"variant": "G82C U119A", "self-cleavage": 2.14},
      {"variant": "G11A U12G", "self-cleavage": 0.47},
      {"variant": "A2U A138G", "self-cleavage": 1.06},
      {"variant": "U26A A59G", "self-cleavage": 0.06},
      {"variant": "C63U A140G", "self-cleavage": 0.25},
      {"variant": "C51U A121G", "self-cleavage": 1.85},
      {"variant": "A117U C128U", "self-cleavage": 0.86},
      {"variant": "U47A U132C", "self-cleavage": 1.41},
      {"variant": "C95U U102C", "self-cleavage": 0.14},
      {"variant": "G34U U47G", "self-cleavage": 1.04},
      {"variant": "A22G A43U", "self-cleavage": 0.88},
      {"variant": "A24G A50U", "self-cleavage": 1.55},
      {"variant": "A24U U47A", "self-cleavage": 0.99},
      {"variant": "U14A U46A", "self-cleavage": 0.86},
      {"variant": "A77G U119G", "self-cleavage": 1.39},
      {"variant": "G86A C110U", "self-cleavage": 0.09},
      {"variant": "G122A A140U", "self-cleavage": 1.47},
      {"variant": "U12C A136G", "self-cleavage": 1.41},
      {"variant": "G32A U119A", "self-cleavage": 1.1},
      {"variant": "C116U A124C", "self-cleavage": 1.6},
      {"variant": "A24U A136G", "self-cleavage": 1.64},
      {"variant": "G33U", "self-cleavage": 1.27},
      {"variant": "G36A U112C", "self-cleavage": 1.29},
      {"variant": "C17U A30G", "self-cleavage": 1.44},
      {"variant": "U119C A142G", "self-cleavage": 1.33},
      {"variant": "U12C U81A", "self-cleavage": 1},
      {"variant": "C3A A65G", "self-cleavage": 0.29},
      {"variant": "G97A A142C", "self-cleavage": 0.14},
      {"variant": "U134C G139A", "self-cleavage": 1.29},
      {"variant": "A65G A121C", "self-cleavage": 0.07},
      {"variant": "G7A C71A", "self-cleavage": 0.29},
      {"variant": "U29A A64G", "self-cleavage": 0.48},
      {"variant": "G93U A141U", "self-cleavage": 0.02},
      {"variant": "C61U U130C", "self-cleavage": 0.05},
      {"variant": "U45A U102A", "self-cleavage": 1.36},
      {"variant": "A50G U132C", "self-cleavage": 1.07},
      {"variant": "U5A A124U", "self-cleavage": 1.2},
      {"variant": "U12G A77G", "self-cleavage": 1.41},
      {"variant": "A121U G122A", "self-cleavage": 0.27},
      {"variant": "G54C U81A", "self-cleavage": 0.4},
      {"variant": "U115A A136G", "self-cleavage": 1.68},
      {"variant": "U12C A64C", "self-cleavage": 0.7},
      {"variant": "A43G A138G", "self-cleavage": 1.34},
      {"variant": "U47G U119A", "self-cleavage": 1.32},
      {"variant": "U23C C113U", "self-cleavage": 0.88},
      {"variant": "U96A U130C", "self-cleavage": 0.06},
      {"variant": "A78G U85G", "self-cleavage": 0.18},
      {"variant": "C17U A124G", "self-cleavage": 0.47},
      {"variant": "A2G A117U", "self-cleavage": 1},
      {"variant": "U14A U62A", "self-cleavage": 0.05},
      {"variant": "G4U A142G", "self-cleavage": 1.46},
      {"variant": "A67C A138U", "self-cleavage": 0.03},
      {"variant": "A69G A121C", "self-cleavage": 0.51},
      {"variant": "A43G U100C", "self-cleavage": 1.65},
      {"variant": "G54A G83A", "self-cleavage": 0.52},
      {"variant": "A107U A136G", "self-cleavage": 1.92},
      {"variant": "G60A C111U", "self-cleavage": 0.04},
      {"variant": "A79G U130G", "self-cleavage": 2.51},
      {"variant": "A42U U102G", "self-cleavage": 0.09},
      {"variant": "G34A U47C", "self-cleavage": 1.18},
      {"variant": "A64U A65U", "self-cleavage": 0.02},
      {"variant": "A24U U46C", "self-cleavage": 1.54},
      {"variant": "U91A U96C", "self-cleavage": 0.12},
      {"variant": "G8A A121C", "self-cleavage": 0.46},
      {"variant": "U73C C133U", "self-cleavage": 1.97},
      {"variant": "A59U A64U", "self-cleavage": 0.62},
      {"variant": "A50U C146U", "self-cleavage": 1.07},
      {"variant": "U115C C145G", "self-cleavage": 1.64},
      {"variant": "G54U G114U", "self-cleavage": 0.74},
      {"variant": "G122A U130A", "self-cleavage": 2.13},
      {"variant": "C63U U102A", "self-cleavage": 0.33}
    ]}
  ]
}
